The source of these data is a protein production outcome set (Wang et al. 2014).
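Further: failed if final PepcDB status was selected cloned or expressed and not failed if soluble or beyond.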

The nature of the data set: label from the status in PepcDB records.
Take “MSLAVTMFKRARAEIFDRNREVGISNVTTAASLVTFPVLAGILGGVVPSVRTPSAAMVSGVQHFAAGIVMAAVAGEVLPDLRSRGPLWLIVVGFSAGVAVLVALRRFDGHGEHQDGDDVGELPVGFLTVVAVDLFIDGLLVATGATVSSRTAIIITIALTVEVLFLGLAVALRLAGSGMPRIRAAATTSALSLVIAVGGVSGAVALGRAGNTVLTLVLAFAAGALLWLVVEELLVEAHETPERPWMAVMFFAGFLILYGLGVME”: the protein production result is “failed”.

As to “MSLCRWAAYHGTPIFLEDVISRPGHSLIAQSAHAEECKTATNGDGFGVAWYDARPEPGLYRDVYPAWSDPNLRAVAHHVRSGLFLSHVRASTGSCISRNNCHPFAARRWCFMHNGQVGGFEAFRKQADMAIADEFYTYRKGSTDSEVLFLLALSEGLEHDPHGALARAIARLEGLSRAHGTTPHMRLSAAFSDGQTLYAARYSSDHIAPSVYYRYSHARQGWAVVSEPLETDEGDWTELRPGRMLTIGAEGAAERDFAPADLGRAAEGHHHHHH”, the protein production result is “not failed”.

For “MSLDRTTQQPFGNGYLSVEQANLILNHLPLEITFVNKDDIFQYYNDSVPAAEMVFKRTPSQVGRNVELCHPPKVLDKVKKVFELLRNGQRDKVNMWFQSERLGKFVYVTYAAVRDQAGDFQGVLEYVQDIKPFFELDSEFNRDEGHHHHHH”, the protein production entry is recorded as “not failed”.

With “MSLDSDPDTLVVHTQLGTTAPGSPTYLAAVDRFREENPGVKIKNLVNGDDLAQVYETSRLARKEADVVMVNLYDKTLAWTDVGATVDVKPYLDDWGLRGRVLPAALADWTDDEGRVRAFPYFATNWPVAYNRALLDRAGVDAIPTTGDQLIAAARKLRAKGIAPVTVGGNDWTGQKLLAQIIQTFLSQDEARHVYSTGDFGVRGARLGIEYFAHLRDAGVFADKAQGLTSDSMTTQFNTEEAAVQSAMSSALAKVPEKVAGHTEVGGWPLADGAAHDGPTVIRAYTLIGFWISPNGVRKIEQVEKFLRFMYRPDVVARFVTESGRDMALRTDAVSTGFPLVGAAQRLGSEVSQVLLPDVYVPPAAAQPLITATSTSFTRGTSPARVRAALESAYRSVEGHHHHHH”, the protein production result is “not failed”.

Take “MSLDSISLIKTPIEAELEDFKALFDTPLSDSNALLDSVITHIRKRNGKMMRPILVLLVARLYGAVTPATLHAAVSLELLHTASLVHDDVVDESTERRGQLSVNAIFNNKVSVLAGDYLLATSLVHAEQTNNYEIIRLVSSLGQKLAEGELLQLSNVSNHSFSEEVYFDVIRKKTAALFAACAEAAALSVQVGEEEVAFARLLGEYIGICFQIKDDIFDYFDSKKIGKPTGNDMLEGKLTLPALYALNTTKDAWAEQIAFKVKEGTATPDEIVRLIEFTKDNGGIEYACRTIEQYKKKAFDLLAALPDSNICLALRTYLDYVVAREKEGHHHHHH”: the protein production entry is “not failed”.

“MSLDSRKPGHRPVTMRDVAKAAGVSRMTVSRALKKDSPISSETRERILKVVKDMNYVPDQVAGSLTTKRSGFVGLLLPSLNNLHFAQTAQSLTDVLEQGGLQLLLGYTAYSPEREEQLVETMLRRRPEAMVLSYDGHTEQTIRLLQRASIPIVEIWEKPAHPIGHTVGFSNERAAYDMTNALLARGFRKIVFLGEKDDDWTRGAARRAGFKRAMREAGLNPDQEIRLGAPPLSIEDGVAAAELILQEYPDTDCIFCVSDMPAFGLLSRLKSIGVAVPEQVSVVGFGNFEVSRFASPEISTVRVDPIAIGRETGSLILRLLDPKQRSPQTAQHITLPPVLEFRPSLKNEGHHHHHH”: the protein production entry is given as “not failed”.

Take “MSLDTVDKLVVFLAKRDGIDKLVKTFQYVAKLACWHVEATRPEAADRFKKWEVASGLSRKAFRTGRSLTGFNALRRNPGATPMIRFLAVLANSGEMVYFFFDHFLWLSRIGSIDAKLAKKMSFISAFGESFGYTFFIIIDCIFIKQRLKSLKKLQHSTDEPKEEIGAKISEIRGDIVMRLMGISANVADLLIALAEIHPNPFCNHTITLGISGLVSAWAGWYRNWPS”: the protein production result is on record as “failed”.

As for “MSLEAGAGAPLARYAAWRRAGDFIFLSGIIPVNPLTGTIVNGFQDVPEPVRELLGATGEFSTDAKQGPILAQSWYVLESIRRTVASAGGQMSDVIKLVQYFRNLDHFPYYSRVRKLFYPDQPPVSTVVQVSEMLPDATVLIEVEATVWLPPSFNSEAEGHHHHHH”, the protein production entry is on record as “not failed”.
